Among the data in US20070111265A1, “Ligands for mineralocorticoid receptor (MR) and methods for screening for or designing MR ligands” (Van Andel Research Institute, priority 2005, published 2007) are IC50 values, retold here.

In the assay the target is T1, human MR LBD (residues 727-984) containing a C808S mutation, 6xHis-GST fusion protein (human), P08235.
T1 chain: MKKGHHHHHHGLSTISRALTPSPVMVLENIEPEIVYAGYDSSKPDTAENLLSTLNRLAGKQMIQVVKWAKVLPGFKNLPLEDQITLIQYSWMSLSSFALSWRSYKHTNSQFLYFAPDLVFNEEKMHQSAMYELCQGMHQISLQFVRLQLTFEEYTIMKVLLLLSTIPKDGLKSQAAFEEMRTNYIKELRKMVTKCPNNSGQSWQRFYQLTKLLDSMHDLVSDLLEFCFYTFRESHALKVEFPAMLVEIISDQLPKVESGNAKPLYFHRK
Put plainly: AlphaScreen peptide competition; corticosterone. Conditions: modification not given. A general note: Alpha assays give light when donor and acceptor beads are brought close together.
In general, IC50 refers to the concentration that gives 50% inhibition. Low readings indicate higher potency, high ones lower potency. On to TERHKILHRLLQESS [SRC1-2], for which the IC50 was found to be 1400 nM.
Then QEKHRILHKLLQNGN [SRC3-2], with 4600 nM; and SKDHQLLRYLLDKDE [SRC1-3], with 1600 nM.
Next, KENNALLRYLLDRDD [SRC3-3]: 1400 nM.
Next, KEKHKILHRLLQDSS [SRC2-2]: 2200 nM.
